Source: patent publication US20260207704A1, “STAPLED PEPTIDES AND METHODS THEREOF” (priority 2022, published 2026)
*1 amine or outer side, *2 acyl side, *3 side chain or, on linkers, in order; H or OH if unused. Bridges are numbered along the chain shown (N, C = ends). Primed or numbered codes have the meaning given here. [ ]: non-standard residue; d: D form. B5(4) = 2-amino-2-(pent-4-en-1-yl)hept-6-enoic acid, stapled through each of its two olefin groups with other olefin-containing amino acid residues, O=C(C(CCCC=[*:3])(CCCC=[*:4])N[*:1])[*:2]; PyrS2″ = (S)-3-amino-1-((pent-4-en-1-yloxy)carbonyl)pyrrolidine-3-carboxylic acid (olefin stapling residue), C=CCCCOC(=O)N1CC[C@@](N[*:1])(C(=O)[*:2])C1; PyrS2 = (S)-3-amino-1-((pent-4-en-1-yloxy)carbonyl)pyrrolidine-3-carboxylic acid, olefin staple residue, C=CCCCOC(=O)N1CC[C@@](N[*:1])(C(=O)[*:2])C1; TriAzLys(4) = (S)-2-amino-5-(1H-1,2,3-triazol-1-yl)pentanoic acid, staple through triazole 4-position, O=C([C@H](CCCn1cc([*:3])nn1)N[*:1])[*:2]; TriAzLys = (S)-2-amino-5-(1H-1,2,3-triazol-1-yl)pentanoic acid, stapled through triazole 4-position, O=C([C@H](CCCn1cc([*:3])nn1)N[*:1])[*:2]; PyrS2(5) = (S)-3-amino-1-((pent-4-en-1-yloxy)carbonyl)pyrrolidine-3-carboxylic acid, C=CCCCOC(=O)N1CC[C@@](N[*:1])(C(=O)[*:2])C1; B5″ = 2-amino-2-(pent-4-en-1-yl)hept-6-enoic acid (bis-olefin stapling residue), C=CCCCC(CCCC=C)(N[*:1])C(=O)[*:2]; 2F3MeF(3) = aromatic amino acid residue, Cc1cccc(C[C@H](N[*:1])C(=O)[*:2])c1F; 2F3MeF″ = aromatic residue, Cc1cccc(C[C@H](N[*:1])C(=O)[*:2])c1F; Phe(3-COOH) = N[C@@H](Cc1cccc(C(=O)O)c1)C(=O)O; 2F3MeF = Cc1cccc(C[C@H](N[*:1])C(=O)[*:2])c1F; Abu(4-yl) = O=C([C@H](CC[*:3])N[*:1])[*:2]; Bta = N[C@@H](Cc1csc2ccccc12)C(=O)O; Lys(iPr) = CC(C)NCCCC[C@H](N)C(=O)O; αAllylPro = C=CC[C@@]1(C(=O)O)CCCN1; BztA = aromatic amino acid residue; tBuAla = CC(C)(C)C[C@H](N)C(=O)O; 3Thi = N[C@@H](Cc1ccsc1)C(=O)O; Cha = N[C@@H](CC1CCCCC1)C(=O)O; PyrS2(4) = not defined here; hSer = N[C@@H](CCO)C(=O)O; BztA″ = aromatic residue; Nle = CCCC[C@H](N)C(=O)O; TfeGA = not defined here; GlnR = not defined here; PL3 = not defined here; B5 = not defined here; Aib = CC(C)(N)C(=O)O

B1: I-92 (peptide)
peptide: Ac-[αAllylPro]D[tBuAla][B5(4)]D[Phe(3-COOH)][GlnR]AFL[PyrS2(5)][2F3MeF(3)][BztA][GlnR](diaminobutane)A-NH2
modifications: staple 1-4 (inferred); not fully specified (bridges); printed as Ac-PL3-Asp-Npg-B5-Asp-3COOHF-GlnR-Ala-Phe-Leu-PyrS2-2F3MeF-BztA-[diaminobutane]GlnR-Ala-NH2; reading uncertain
B2: I-98 (peptide)
peptide: Ac-[PL3]D[Cha][B5]D[Phe(3-COOH)]AAFK[PyrS2″][2F3MeF(3)][BztA][GlnR]A-NH2
modifications: staple 1-4 (inferred); bridge 10-14; not fully specified (residue 10, bridges); printed as Ac-PL3-Asp-Cha-B5-Asp-3COOHF-Ala-Ala-Phe-Lys*3-PyrS2-2F3MeF-BztA-GlnR*3-Ala-NH2; reading uncertain; also: Lys10 and GlnR14 marked *3
B3: I-99 (peptide)
peptide: Ac-[PL3]D[tBuAla][B5]D[Phe(3-COOH)][tBuAla]AFK[PyrS2″][2F3MeF(3)][BztA][GlnR]A-NH2
modifications: staple 1-4 (inferred); bridge 10-14; not fully specified (residue 10, bridges); printed as Ac-PL3-Asp-Npg-B5-Asp-3COOHF-Npg-Ala-Phe-Lys*3-PyrS2-2F3MeF-BztA-GlnR*3-Ala-NH2; reading uncertain; also: Lys10 and GlnR14 marked *3
B4: I-100 (peptide)
peptide: Ac-[PL3]D[tBuAla][B5]D[Phe(3-COOH)][tBuAla]AFK[PyrS2(4)][2F3MeF][Bta][GlnR]A-NH2
modifications: staple 1-4; bridge 10-14; not fully specified (residue 10); printed as Ac-PL3-Asp-Npg-B5-Asp-3COOHF-Npg-Ala-Phe-Lys*3-PyrS2-2F3MeF-BztA-GlnR*3-Ala-NH2; reading uncertain; also: PyrS2 tied into a staple, partner not placed
B5: I-102 (peptide)
peptide: Ac-[PL3]D[tBuAla][B5]D[Phe(3-COOH)][Cha]AFK[PyrS2(4)][2F3MeF][Bta][GlnR]A-NH2
modifications: staple 1-4; bridge 10-14; not fully specified (residue 10); printed as Ac-PL3-Asp-Npg-B5-Asp-3COOHF-Cha-Ala-Phe-Lys*3-PyrS2-2F3MeF-BztA-GlnR*3-Ala-NH2; reading uncertain; also: PyrS2 tied into a staple, partner not placed
B6: I-103 (peptide)
peptide: Ac-[PL3]D[Cha][B5]D[Phe(3-COOH)][Cha]AFK[PyrS2(4)][2F3MeF][Bta][GlnR]A-NH2
modifications: staple 1-4; bridge 10-14; not fully specified (residue 10); printed as Ac-PL3-Asp-Cha-B5-Asp-3COOHF-Cha-Ala-Phe-Lys*3-PyrS2-2F3MeF-BztA-GlnR*3-Ala-NH2; reading uncertain; also: PyrS2 tied into a staple, partner not placed
B7: I-105 (peptide)
peptide: Ac-[PL3]D[tBuAla][B5]D[Phe(3-COOH)]AAFK[PyrS2(4)][2F3MeF][Bta][GlnR]L-NH2
modifications: staple 1-4; bridge 10-14; not fully specified (residue 10); printed as Ac-PL3-Asp-Npg-B5-Asp-3COOHF-Ala-Ala-Phe-Lys*3-PyrS2-2F3MeF-BztA-GlnR*3-Leu-NH2; reading uncertain; also: PyrS2 tied into a staple, partner not placed
B8: I-107 (peptide)
peptide: Ac-[PL3]D[Cha][B5]D[Phe(3-COOH)]AAFK[PyrS2(4)][2F3MeF][Bta][GlnR]L-NH2
modifications: staple 1-4; bridge 10-14; not fully specified (residue 10); printed as Ac-PL3-Asp-Cha-B5-Asp-3COOHF-Ala-Ala-Phe-Lys*3-PyrS2-2F3MeF-BztA-GlnR*3-Leu-NH2; reading uncertain; also: PyrS2 tied into a staple, partner not placed
B9: I-108 (peptide)
peptide: Ac-[PL3]D[tBuAla][B5]D[Phe(3-COOH)][tBuAla]AFK[PyrS2(4)][2F3MeF][Bta][GlnR]L-NH2
modifications: staple 1-4; bridge 10-14; not fully specified (residue 10); printed as Ac-PL3-Asp-Npg-B5-Asp-3COOHF-Npg-Ala-Phe-Lys*3-PyrS2-2F3MeF-BztA-GlnR*3-Leu-NH2; reading uncertain; also: PyrS2 tied into a staple, partner not placed
B10: I-2 (peptide)
peptide: Ac-[PL3]DL[B5(4)]DDAAF[dK][PyrS2″][3Thi][Bta][GlnR]-NH2
modifications: bridge 10-14; not fully specified (bridges); printed as Ac-PL3-Asp-Leu-B5-Asp-Asp-Ala-Ala-Phe-dLys*3-PyrS2-3Thi-BztA-GlnR*3-NH2; reading uncertain
B11: I-112 (peptide)
peptide: Ac-[PL3]D[tBuAla][B5]D[TfeGA]AAFK[PyrS2(4)][2F3MeF][Bta][GlnR]A-NH2
modifications: staple 1-4; bridge 10-14; reading uncertain; also: PyrS2 tied into a staple, partner not placed
B12: I-113 (peptide)
peptide: Ac-[PL3]N[tBuAla][B5]D[TfeGA]AAFK[PyrS2(4)][2F3MeF][Bta][GlnR]A-NH2
modifications: staple 1-4; bridge 10-14; reading uncertain; also: PyrS2 tied into a staple, partner not placed
B13: I-115 (peptide)
peptide: Ac-[PL3][hSer][tBuAla][B5]D[TfeGA]AAFK[PyrS2(4)][2F3MeF][Bta][GlnR]A-NH2
modifications: staple 1-4; bridge 10-14; reading uncertain; also: PyrS2 tied into a staple, partner not placed
B14: I-116 (peptide)
peptide: Ac-[PL3][hSer][tBuAla][B5]D[TfeGA]AAFK[PyrS2(4)][2F3MeF][Bta][GlnR]A-NH2
modifications: staple 1-4; bridge 10-14; reading uncertain; also: PyrS2 tied into a staple, partner not placed
B15: I-118 (peptide)
peptide: Ac-[αAllylPro]D[tBuAla][B5″][hSer][TfeGA]AAFK[PyrS2″][2F3MeF][Bta][GlnR]A-NH2
modifications: bridge 10-14; not fully specified (bridges); reading uncertain; also: Lys*3 and GlnR*3 marked *3
B16: I-119 (peptide)
peptide: Ac-[αAllylPro]D[tBuAla][B5″][hSer][TfeGA]AAFK[PyrS2″][2F3MeF][Bta][GlnR]A-NH2
modifications: bridge 10-14; not fully specified (bridges); reading uncertain; also: Lys*3 and GlnR*3 marked *3
B17: I-145 (peptide)
peptide: Ac-[αAllylPro][hSer][tBuAla][B5]D[Phe(3-COOH)]AAFK[PyrS2(5)][2F3MeF″][BztA″][GlnR]LS-NH2
modifications: bridge 10-14; not fully specified (bridges); printed as Ac-PL3-Hse-Npg-B5-Asp-3COOHF-Ala-Ala-Phe-Lys*3-PyrS2-2F3MeF-BztA-GlnR*3-Leu-Ser-NH2; reading uncertain; also: Lys10 and GlnR14 marked *3
B18: I-146 (peptide)
peptide: Ac-[αAllylPro][hSer][tBuAla][B5]D[Phe(3-COOH)][Nle]AFK[PyrS2″][2F3MeF″][BztA″][GlnR]LS-NH2
modifications: bridge 10-14; not fully specified (bridges); printed as Ac-PL3-Hse-Npg-B5-Asp-3COOHF-nLeu-Ala-Phe-Lys*3-PyrS2-2F3MeF-BztA-GlnR*3-Leu-Ser-NH2; reading uncertain; also: Lys10 and GlnR14 marked *3
B19: I-150 (peptide)
peptide: Ac-[αAllylPro]N[Cha][B5″]DT[Lys(iPr)]AF[GlnR][PyrS2″]F[Bta]K-NH2
modifications: bridge 10-14; reading uncertain; also: PL3-B5 and PyrS2 links not placed, printed as Ac-PL3-Asn-Cha-B5-Asp-Thr-iPrLys-Ala-Phe-GlnR*3-PyrS2-Phe-BztA-Lys*3-NH2
B20: I-335 (peptide)
peptide: Ac-[αAllylPro]D[tBuAla][B5]D[Phe(3-COOH)][Aib]AF[TriAzLys(4)][PyrS2][3Thi][Bta][Abu(4-yl)]A-NH2
modifications: triazole 10-14; not fully specified (bridges); printed as Ac-PL3-Asp-Npg-B5-Asp-3COOHF-Aib-Ala-Phe-TriAzLys*3-PyrS2-3Thi-BztA-sAla*3-Ala-NH2; reading uncertain
B21: I-18 (peptide)
peptide: Ac-[αAllylPro]D[tBuAla][B5″]DDAAF[TriAzLys][PyrS2″][3Thi][Bta][Abu(4-yl)]-NH2
modifications: triazole 10-14; also: PL3-B5 and PyrS2 links not placed

The binders below were run against beta-catenin (human) (assay: fluorescence polarization).
Sequence of beta-catenin (human) (B6V8E6 146-665 limits assumed): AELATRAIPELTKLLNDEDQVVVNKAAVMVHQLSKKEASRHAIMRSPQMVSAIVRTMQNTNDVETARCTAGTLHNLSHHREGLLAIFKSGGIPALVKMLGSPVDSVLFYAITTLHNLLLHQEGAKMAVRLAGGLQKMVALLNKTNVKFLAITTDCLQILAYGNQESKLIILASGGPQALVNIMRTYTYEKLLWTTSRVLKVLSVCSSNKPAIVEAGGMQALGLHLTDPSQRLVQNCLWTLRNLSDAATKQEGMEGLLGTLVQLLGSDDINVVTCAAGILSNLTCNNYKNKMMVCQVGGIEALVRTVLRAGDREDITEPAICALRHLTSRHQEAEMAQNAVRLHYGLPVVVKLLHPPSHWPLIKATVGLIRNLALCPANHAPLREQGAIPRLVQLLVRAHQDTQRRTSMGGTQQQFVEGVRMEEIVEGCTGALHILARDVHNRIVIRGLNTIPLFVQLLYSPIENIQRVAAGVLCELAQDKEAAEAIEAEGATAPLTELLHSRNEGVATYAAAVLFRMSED
B1 was tested, and the IC50 was < 50 nM.
For B2, the IC50 was < 50 nM.
With B3 the IC50 was < 50 nM.
B4 was tested, and the IC50 was < 50 nM.
For B5, the IC50 was < 50 nM.
For B6, the IC50 was < 50 nM.
In the case of B7, the IC50 is reported as < 50 nM.
With B8 the IC50 was < 50 nM.
For B9, the IC50 was < 50 nM.
With B10 the IC50 was < 50 nM.
In the case of B11, the IC50 is reported as < 50 nM.
B12 was tested, and the IC50 was < 50 nM.
In the case of B13, the IC50 is reported as > 1000 nM.
For B14, the IC50 was > 1000 nM.
With B15 the IC50 was > 1000 nM.
With B16 the IC50 was > 1000 nM.
For B17, the IC50 was > 1000 nM.
B18 was tested, and the IC50 was > 1000 nM.
B19 was tested, and the IC50 was > 1000 nM.
In the case of B20, the IC50 is reported as < 50 nM.
In the case of B21, the IC50 is reported as < 50 nM.
